Results taken from US11136633.
Numbering of substitutions follows the chain as printed. In names and notes the source's numbering stands. Read-outs that look alike come from different tables or passages of the source.

Tests used:
[1] = biological target: T1, 5T4 (on 5T4-expressing MDA-MB-468 cells) (human, UniProt Q13641 32-420); test: cell-based or functional assay
T1 sequence (looked up): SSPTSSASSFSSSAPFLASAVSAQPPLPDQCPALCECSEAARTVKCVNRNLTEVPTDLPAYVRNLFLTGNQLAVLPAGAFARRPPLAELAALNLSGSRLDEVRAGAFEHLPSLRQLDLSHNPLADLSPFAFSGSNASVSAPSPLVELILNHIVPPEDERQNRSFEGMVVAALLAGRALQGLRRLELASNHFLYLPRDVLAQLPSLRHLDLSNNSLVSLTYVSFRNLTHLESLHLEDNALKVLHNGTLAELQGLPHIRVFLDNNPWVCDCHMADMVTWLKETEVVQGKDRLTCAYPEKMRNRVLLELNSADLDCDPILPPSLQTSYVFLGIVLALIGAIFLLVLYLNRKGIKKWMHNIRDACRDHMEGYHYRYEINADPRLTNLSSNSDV

[2] = biological target: T1, 5T4 (on 5T4-expressing MDA-MB-468 cells); test: cellular binding on 5T4-expressing MDA-MB-468 cells
[3] = biological target: T2, PSMA (on PSMA-expressing LNCaP-C4.2 cells) (human, UniProt Q04609 1-750); test: cell-based or functional assay
[4] = biological target: T2, PSMA (on PSMA-expressing LNCaP-C4.2 …); test: cell-based or functional assay; remark: listed apart in the source

T2 sequence (Q04609 whole entry): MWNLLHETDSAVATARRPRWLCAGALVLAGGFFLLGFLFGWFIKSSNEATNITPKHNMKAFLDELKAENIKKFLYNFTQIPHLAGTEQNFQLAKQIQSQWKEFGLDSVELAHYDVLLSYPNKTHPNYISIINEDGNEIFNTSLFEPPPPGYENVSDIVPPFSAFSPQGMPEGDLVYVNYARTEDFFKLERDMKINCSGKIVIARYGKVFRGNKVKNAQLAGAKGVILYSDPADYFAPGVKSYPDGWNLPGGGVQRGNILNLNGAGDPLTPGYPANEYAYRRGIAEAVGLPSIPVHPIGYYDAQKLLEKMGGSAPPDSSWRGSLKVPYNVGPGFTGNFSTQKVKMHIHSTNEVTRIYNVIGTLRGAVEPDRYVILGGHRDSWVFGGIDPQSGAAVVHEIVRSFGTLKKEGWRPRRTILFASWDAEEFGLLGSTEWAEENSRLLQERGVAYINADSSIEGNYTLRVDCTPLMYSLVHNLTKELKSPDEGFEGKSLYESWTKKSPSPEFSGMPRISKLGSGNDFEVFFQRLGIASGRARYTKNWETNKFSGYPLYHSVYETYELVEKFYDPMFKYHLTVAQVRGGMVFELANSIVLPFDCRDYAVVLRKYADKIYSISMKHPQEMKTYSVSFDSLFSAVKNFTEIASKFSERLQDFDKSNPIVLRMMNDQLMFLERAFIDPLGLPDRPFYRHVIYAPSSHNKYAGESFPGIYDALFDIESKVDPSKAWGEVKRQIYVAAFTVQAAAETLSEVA

B1: H8-HC40, engineered cysteine anti-5T4 (HC S40C) H8 antibody conjugated to vc-seco-DUBA (antibody, human IgG1, kappa, V domains shown)
VH: QVQLVQSGAEVKKPGASVKVSCKASGYSFTGYYMHWVKQCPGQGLEWIGRINPNNGVTLYNQKFKDRVTMTRDTSISTAYMELSRLRSDDTAVYYCARSTMITNYVMDYWGQGTLVTVSS
VL: DIVMTQSPDSLAVSLGERATINCKASQSVSNDVAWYQQKPGQSPKLLISYTSSRYAGVPDRFSGSGSGTDFTLTISSLQAEDVAVYFCQQDYNSPPTFGGGTKLEIKR
modifications: vc-seco-DUBA linker drug on engineered Cys 40; average DAR 1.7
B1 was tested, and the “% efficacy, in vitro cytotoxicity on MDA-MB-468 at ~100 nM” value [1] was 88% and the “IC50, in vitro cytotoxicity on 5T4-positive cell line MDA-MB-468” value [1] was 0.07 nM.

B2: wild-type H8 antibody (anti-5T4) (antibody, human IgG1, kappa, V domains shown)
VH: B1 VH with C40S
VL: B1 VL
notes: Naked antibody, human IgG1 kappa
B2: binds [2].

B3: H8-HC41, engineered cysteine anti-5T4 (VH P41C) H8 antibody conjugated to vc-seco-DUBA (antibody, human IgG1, kappa, V domains shown)
VH: B1 VH with C40S, P41C
VL: B1 VL
modifications: vc-seco-DUBA linker drug on engineered Cys 41; average DAR 1.7
With B3 the “% efficacy, in vitro cytotoxicity on MDA-MB-468 at ~100 nM” value [1] was 88% and the “IC50, in vitro cytotoxicity on 5T4-positive cell line MDA-MB-468” value [1] was 0.07 nM.

B4: ADC-HC41 (SYD1091), engineered cysteine anti-PSMA (VH S41C) antibody conjugated to vc-seco-DUBA (antibody, human IgG1, kappa, V domains shown)
VH: EVQLVQSGAEVKKPGASVKISCKTSGYTFTEYTIHWVKQACGKGLEWIGNINPNNGGTTYNQKFEDRATLTVDKSTSTAYMELSSLRSEDTAVYYCAAGWNFDYWGQGTTVTVSS
VL: DIVMTQSPSSLSASVGDRVTITCKASQDVGTAVDWYQQKPGKAPKLLIYWASTRHTGVPDRFTGSGSGTDFTLTISSLQPEDFADYFCQQYNSYPLTFGGGTKLEIKR
modifications: vc-seco-DUBA linker drug on engineered Cys 41 (Kabat numbering); average DAR 1.7
In the case of B4, the “IC50, in vitro cytotoxicity on PSMA-positive cell line LNCaP-C4.2” value [3] is reported as 0.25 nM.

B5: ADC-HC41 (vc-MMAE), anti-PSMA antibody (HC S41C) conjugated to vc-MMAE (antibody, human IgG1, kappa, V domains shown)
VH: B4 VH
VL: B4 VL
modifications: vc-MMAE linker drug on engineered Cys 41 (Kabat numbering); average DAR 1.8
With B5 the “IC50, in vitro cytotoxicity on PSMA-positive cell line LNCaP-C4.2” value [4] was 0.39 nM.
